According to publication PMC7897226:

B1: CheD_(1–200)-T18 (natural protein)
chain: MNLQAREGAPLNRYYDPYFACDAVKLLPGEYFASGEDLVIVTVLGSCVSVCLRDPLNGIAGMNHFMLPERGLGGDPASPSARYGSHAMELLINRMLALGASRERLQAKVFGGGSVLRQISAAIGQRNVEFTLDYLATERIPLLASDVLEAFPRKIYFFPRNGRVLVKSLVELKNDTVLQRERDYRRRIDRNADGGPIDLF

Assays:
[1] = biological target: CheY2-T25 (P. aeruginosa); test: two-hybrid
[2] = biological target: T25-CheY2 (P. aeruginosa); test: two-hybrid

Molecule | fold β-galactosidase activity over controls [1] [fold] | fold β-galactosidase activity over control [2] [fold]
T18-CheA2 (enzyme) | 34 | 
B1 |  | 15
